The results in this text go back to article PMC8469703, “Arginine Methylation of hnRNPK Inhibits the DDX3-hnRNPK Interaction to Play an Anti-Apoptosis Role in Osteosarcoma Cells” (International Journal of Molecular Sciences, 2021).

Assay [1] addresses T1, GST-tagged full-length DDX3 (GST-DDX3^1–662) (human, UniProt O00571 1-662).
T1 construct: Vector pGEX-5X-1
Kind of assay: pull-down; bead-bound GST-DDX3 variants incubated with recombinant hnRNPK or the KI segment; binding buffer PBS with 0.5% NP-40, 0.25% sodium deoxycholate, 5% glycerol, protease inhibitors; 4 °C, 1 h; three washes; SDS-PAGE. The settings on record: both partners purified.

The target in assay [2] is T2, GST-tagged C-terminal region of DDX3 (GST-DDX3^535–662) (human, UniProt O00571 535-662).
T2 construct: Vector pGEX-5X-1; also called DDX3 C-terminus
T2 sequence (O00571 535-662): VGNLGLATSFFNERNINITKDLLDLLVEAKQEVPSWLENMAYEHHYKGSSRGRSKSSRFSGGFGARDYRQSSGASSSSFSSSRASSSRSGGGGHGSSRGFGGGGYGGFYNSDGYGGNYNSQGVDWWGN
The description is as above. The note with it: both partners purified.

T1 sequence (O00571 whole entry): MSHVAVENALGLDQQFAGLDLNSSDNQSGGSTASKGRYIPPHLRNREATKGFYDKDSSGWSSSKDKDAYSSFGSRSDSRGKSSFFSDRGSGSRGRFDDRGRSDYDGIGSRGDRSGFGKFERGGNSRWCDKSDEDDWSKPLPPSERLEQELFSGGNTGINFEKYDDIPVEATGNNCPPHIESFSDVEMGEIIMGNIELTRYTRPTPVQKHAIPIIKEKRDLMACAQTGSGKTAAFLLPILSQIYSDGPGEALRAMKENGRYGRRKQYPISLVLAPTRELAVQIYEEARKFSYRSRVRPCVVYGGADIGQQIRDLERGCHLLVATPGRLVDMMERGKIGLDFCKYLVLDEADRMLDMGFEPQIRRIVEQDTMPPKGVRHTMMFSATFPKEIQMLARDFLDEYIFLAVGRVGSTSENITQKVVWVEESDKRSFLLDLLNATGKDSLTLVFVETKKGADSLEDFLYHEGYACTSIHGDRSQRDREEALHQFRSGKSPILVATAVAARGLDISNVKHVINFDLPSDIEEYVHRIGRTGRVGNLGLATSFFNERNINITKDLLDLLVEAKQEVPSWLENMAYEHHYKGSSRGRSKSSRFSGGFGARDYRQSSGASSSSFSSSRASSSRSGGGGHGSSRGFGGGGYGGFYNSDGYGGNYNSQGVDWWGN

B1: His6-tagged Trx-KI (K-interactive region of hnRNPK, amino acids 240–336) (domain or fragment, UniProt P61978 240-336, looked up)
chain: TMMFDDRRGRPVGFPMRGRGGFDRMPPGRGGRPMPPSRRDYDDMSPRRGPPPPPPGRGGRGGSRARNLPLPPPPPPRGGDLMAYDRRGRPGDRYDGM
notes: also called his-KI; KI segment; source: E. coli BL21 DE3 pLysS, purified (Ni-NTA agarose, dialysis)
Regarding B1, the binding result in assay [1] and in assay [2] was “binds” in each case.
